Results on seven molecules are retold here after patent US20200399381A1 (I MAB BIOPHARMA US, published 2020).

The target of this test is T1, human IFNAR-1 protein (form not stated) (human, UniProt P17181 28-436, limits assumed).
T1 construct: bispecific ELISA
T1 sequence (looked up): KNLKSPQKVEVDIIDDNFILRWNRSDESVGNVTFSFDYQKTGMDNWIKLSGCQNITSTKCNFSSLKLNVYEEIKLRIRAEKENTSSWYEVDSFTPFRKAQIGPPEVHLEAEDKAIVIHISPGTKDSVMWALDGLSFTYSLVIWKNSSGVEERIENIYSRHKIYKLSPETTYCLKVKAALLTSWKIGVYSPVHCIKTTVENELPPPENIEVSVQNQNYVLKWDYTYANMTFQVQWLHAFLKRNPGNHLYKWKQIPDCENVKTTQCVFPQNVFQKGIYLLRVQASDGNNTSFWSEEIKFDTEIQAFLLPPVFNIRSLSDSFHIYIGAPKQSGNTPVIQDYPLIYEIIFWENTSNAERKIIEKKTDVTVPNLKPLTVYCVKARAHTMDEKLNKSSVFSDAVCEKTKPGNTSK
In words: affinity ranking of expressed humanized 8G11 IgGs (method not named).

B1: 8G11 humanized VH3 + VL3 (antibody, V domains shown)
VH: QVQLVQSGAEVVKPGASVKVSCKGSGFNIKDYYMHWVKQAPGQGLEWIGRIDPEDAETKYAPKFQGRVTITADTSTSTVYLELSSLRSEDTAVYYCARGGNFYVMDYWGQGTLVTVSS
VL: DIQLTQSPSFLSTSVGDRVTITCKASQNVGTNVVWYQQKPGKSPKVLIYSASYRVSGVPSRFSGSGSGTEFTLIISSVQPEDFATYFCQQKNNYPYTFGQGTKLEIK
notes: Humanized IgG expressed in HEK293; also called VH3 + VL3 (8G11)
Molecule B1 came in with an equilibrium dissociation constant (Kd) of 0.364 nM, a koff of 0.00011 s⁻¹ and a kon of 301000 M⁻¹ s⁻¹.

B2: 8G11 humanized VH2 + VL3 (antibody, V domains shown)
VH: QVQLVQSGAEVVKPGASVKVSCKGSGFNIKDYYMHWVRQAPGQGLEWIGRIDPEDAETKYAPKFQGRVTMTADTSTSTVYMELSSLRSEDTAVYYCARGGNFYVMDYWGQGTLVTVSS
VL: DIQLTQSPSFLSTSVGDRVTITCKASQNVGTNVVWYQQKPGKSPKVLIYSASYRVSGVPSRFSGSGSGTEFTLIISSVQPEDFATYFCQQKNNYPYTFGQGTKLEIK
notes: Humanized IgG expressed in HEK293; also called VH2 + VL3 (8G11)
Molecule B2 had a Kd of 0.364 nM, an off-rate constant (koff) of 9.65e-05 s⁻¹ and a kon of 265000 M⁻¹ s⁻¹.

B3: 8G11 humanized VH2 + VL4 (antibody, V domains shown)
VH: QVQLVQSGAEVVKPGASVKVSCKGSGFNIKDYYMHWVRQAPGQGLEWIGRIDPEDAETKYAPKFQGRVTMTADTSTSTVYMELSSLRSEDTAVYYCARGGNFYVMDYWGQGTLVTVSS
VL: DIQMTQSPSFLSTSVGDRVTVTCKASQNVGTNVVWYQQKPGKSPKVLIYSASYRVSGVPSRFSGSGSGTEFTLIISSVQPEDFATYFCQQKNNYPYTFGQGTKLEIK
notes: Humanized IgG expressed in HEK293; also called VH2 + VL4 (8G11)
As to B3, the dissociation constant Kd amounted to 0.388 nM, the off-rate (koff) worked out at 0.000102 s⁻¹ and the kon came out at 262000 M⁻¹ s⁻¹.

B4: 8G11 humanized VH1 + VL2 (antibody, V domains shown)
VH: QVQLVQSGAEVKKPGASVKVSCKASGFNIKDYYMHWVRQAPGQGLEWMGRIDPEDAETKYAPKFQGRVTMTRDTSTSTVYMELSSLRSEDTAVYYCARGGNFYVMDYWGQGTLVTVSS
VL: DIQLTQSPSFLSTSVGDRVTITCKASQNVGTNVVWYQQKPGKSPKVLIYSASYRVSGVPSRFSGSGSGTEFTLIISSLQPEDFATYYCQQKNNYPYTFGQGTKLEIK
notes: Humanized IgG expressed in HEK293; also called VH1 + VL2 (8G11)
In the case of B4, the dissociation constant Kd came out at 0.765 nM, the koff came out at 0.000127 s⁻¹ and the association rate constant (kon) was found to be 167000 M⁻¹ s⁻¹.

B5: 8G11 humanized VH1 + VL4 (antibody, V domains shown)
VH: QVQLVQSGAEVKKPGASVKVSCKASGFNIKDYYMHWVRQAPGQGLEWMGRIDPEDAETKYAPKFQGRVTMTRDTSTSTVYMELSSLRSEDTAVYYCARGGNFYVMDYWGQGTLVTVSS
VL: DIQMTQSPSFLSTSVGDRVTVTCKASQNVGTNVVWYQQKPGKSPKVLIYSASYRVSGVPSRFSGSGSGTEFTLIISSVQPEDFATYFCQQKNNYPYTFGQGTKLEIK
notes: Humanized IgG expressed in HEK293; also called VH1 + VL4 (8G11)
As to B5, the affinity, expressed as Kd, was 0.836 nM; the koff is 0.000141 s⁻¹; the on-rate (kon) was determined as 169000 M⁻¹ s⁻¹.

B6: 8G11 humanized VH1 + VL3 (antibody, V domains shown)
VH: QVQLVQSGAEVKKPGASVKVSCKASGFNIKDYYMHWVRQAPGQGLEWMGRIDPEDAETKYAPKFQGRVTMTRDTSTSTVYMELSSLRSEDTAVYYCARGGNFYVMDYWGQGTLVTVSS
VL: DIQLTQSPSFLSTSVGDRVTITCKASQNVGTNVVWYQQKPGKSPKVLIYSASYRVSGVPSRFSGSGSGTEFTLIISSVQPEDFATYFCQQKNNYPYTFGQGTKLEIK
notes: Humanized IgG expressed in HEK293; also called VH1 + VL3 (8G11)
On to B6, for which the dissociation constant (Kd) was found to be 0.865 nM, the koff was 0.0002 s⁻¹ and the on-rate constant (kon) is 231000 M⁻¹ s⁻¹.

B7: 8G11 humanized VH3 + VL1 (antibody, V domains shown)
VH: QVQLVQSGAEVVKPGASVKVSCKGSGFNIKDYYMHWVKQAPGQGLEWIGRIDPEDAETKYAPKFQGRVTITADTSTSTVYLELSSLRSEDTAVYYCARGGNFYVMDYWGQGTLVTVSS
VL: DIQLTQSPSFLSASVGDRVTITCKASQNVGTNVVWYQQKPGKAPKLLIYSASYRVSGVPSRFSGSGSGTEFTLTISSLQPEDFATYYCQQKNNYPYTFGQGTKLEIK
notes: Humanized IgG expressed in HEK293; also called VH3 + VL1 (8G11)
With B7, the equilibrium dissociation constant (Kd) was determined as 0.413 nM, the koff was 0.000106 s⁻¹ and the kon is 256000 M⁻¹ s⁻¹.

The Kd is the concentration at which binding is half-saturated. In general, koff refers to the first-order rate constant of dissociation. Higher therefore signals a short-lived complex. The term kon denotes the rate constant with which the complex forms. A low value points to slow association.
